Reference: PMC4513882
Like-named read-outs stand apart in the source and are kept apart here.

Tests used:
SAMHD1 wt [1] = biological target: T1, SAMHD1 wt (human, UniProt Q9Y3Z3 1-626); experiment: fluorescence anisotropy
SAMHD1 ΔSAM (Δ112) = SAMHD1 ΔSAM (Δ112) (human, UniProt Q9Y3Z3 113-626, del1-112); experiment: fluorescence anisotropy
SAMHD1 Q548A = SAMHD1 Q548A (human, UniProt Q9Y3Z3 1-626, Q548A); experiment: fluorescence anisotropy
SAMHD1 R451E = SAMHD1 R451E (human, UniProt Q9Y3Z3 1-626, R451E); experiment: fluorescence anisotropy
SAMHD1 T592E = SAMHD1 T592E (human, UniProt Q9Y3Z3 1-626, T592E); experiment: fluorescence anisotropy
SAMHD1 wt [2] = biological target: T1, SAMHD1 wt; experiment: fluorescence anisotropy; remark: listed apart in the source
SAMHD1 wt [3] = biological target: T1, SAMHD1 wt; experiment: competition
SAMHD1 wt [4] = biological target: T1, SAMHD1 wt; experiment: competition; remark: listed apart in the source

T1 sequence (Q9Y3Z3 whole entry): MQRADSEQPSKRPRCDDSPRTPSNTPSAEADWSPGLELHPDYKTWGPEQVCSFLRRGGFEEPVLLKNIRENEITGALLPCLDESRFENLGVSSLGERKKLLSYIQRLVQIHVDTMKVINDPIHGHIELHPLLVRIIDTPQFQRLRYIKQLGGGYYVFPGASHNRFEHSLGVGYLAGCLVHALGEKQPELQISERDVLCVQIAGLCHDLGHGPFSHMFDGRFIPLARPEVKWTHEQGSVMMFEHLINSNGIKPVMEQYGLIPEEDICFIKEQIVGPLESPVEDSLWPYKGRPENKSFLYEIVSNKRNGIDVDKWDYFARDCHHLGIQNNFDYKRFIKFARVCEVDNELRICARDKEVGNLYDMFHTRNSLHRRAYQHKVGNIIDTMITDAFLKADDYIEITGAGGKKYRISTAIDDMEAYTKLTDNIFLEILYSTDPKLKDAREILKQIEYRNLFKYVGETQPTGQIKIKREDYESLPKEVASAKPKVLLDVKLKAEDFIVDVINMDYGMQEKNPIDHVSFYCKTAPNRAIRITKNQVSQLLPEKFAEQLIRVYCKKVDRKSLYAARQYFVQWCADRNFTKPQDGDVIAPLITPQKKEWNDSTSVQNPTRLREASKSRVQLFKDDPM
Sequence of SAMHD1 T592E (Q9Y3Z3 whole entry T592E): as the sequence (Q9Y3Z3 whole entry) above, with T592E counted along it
Sequence of SAMHD1 Q548A (Q9Y3Z3 whole entry Q548A): as the sequence (Q9Y3Z3 whole entry) above, with Q548A counted along it
Sequence of SAMHD1 R451E (Q9Y3Z3 whole entry R451E): as the sequence (Q9Y3Z3 whole entry) above, with R451E counted along it
Sequence of SAMHD1 ΔSAM (Δ112) (Q9Y3Z3 113-626, stated change not applied): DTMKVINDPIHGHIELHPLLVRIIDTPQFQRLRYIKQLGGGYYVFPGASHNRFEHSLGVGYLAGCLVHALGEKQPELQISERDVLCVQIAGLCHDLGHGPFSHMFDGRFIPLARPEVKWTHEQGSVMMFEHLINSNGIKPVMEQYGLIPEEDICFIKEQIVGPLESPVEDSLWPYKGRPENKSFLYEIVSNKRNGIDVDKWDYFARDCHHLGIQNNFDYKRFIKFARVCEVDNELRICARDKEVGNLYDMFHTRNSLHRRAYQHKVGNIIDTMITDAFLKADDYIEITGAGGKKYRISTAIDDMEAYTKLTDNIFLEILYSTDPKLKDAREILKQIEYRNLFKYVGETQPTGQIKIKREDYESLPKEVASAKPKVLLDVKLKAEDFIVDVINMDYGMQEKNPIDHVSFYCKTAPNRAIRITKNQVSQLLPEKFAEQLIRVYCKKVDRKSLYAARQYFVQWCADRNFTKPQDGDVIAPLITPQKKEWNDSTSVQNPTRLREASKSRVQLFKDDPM

| Binder | apparent K (half saturation) (SAMHD1 wt [1]) [nM] | binding result (SAMHD1 Q548A) | binding result (SAMHD1 T592E) | also measured |
| --- | --- | --- | --- | --- |
| RNA:DNA40 (DNA:RNA) RNA: CACCAAUUCGUCUUAGGGUUAAUCUUGAAGCUAGAGUUAA DNA: TTAACTCTAGCTTCAAGATTAACCCTAAGACGAATTGGTG | 2000 ± 400 | – | – | – |
| CACCAAUUCGUCUUAGGGUUAAUCUUGAAGCUAGAGUUAA (ssRNA) [ssRNA40] | – | binds | binds | binding result (SAMHD1 ΔSAM (Δ112)): binds; binding result (SAMHD1 R451E): binds |
| ssDNA57 (ssDNA) DNA: TGGAGAATCCCGGTGCCGAGGCCGCTCAATTGGTCGTAGACAGCTCTAGCACCGCTT | 450 ± 130 | binds | binds | – |
| dsDNA57 (dsDNA) DNA 1: TGGAGAATCCCGGTGCCGAGGCCGCTCAATTGGTCGTAGACAGCTCTAGCACCGCTT DNA 2: AAGCGGTGCTAGAGCTGTCTACGACCAATTGAGCGGCCTCGGCACCGGGATTCTCCA | – | – | – | apparent K (half saturation) (SAMHD1 wt [2]): 18 ± 2 µM |
| ssDNA90 (ssDNA) DNA: TGGAGAATCCCGGTGCCGAGGCCGCTCAATTGGTCGTAGACAGCTCTAGCACCGCTTGAAGGAGATATACATACATTAATTGCGTTGCGC | – | – | – | binding result (SAMHD1 wt [3]): binds |
| ssRNA90 (ssRNA) RNA: GGGGAAUUGUGAGCGGAUAACAAUUCCCCUCUAGAAAUAAUUUUGUUUAACUUUAAGAAGGAGAUAUACAUAUGCACCAUCAUCAUCAUC | – | – | – | binding result (SAMHD1 wt [4]): binds |
